Source: article PMC11179954 (MedComm, 2024)

Legend:
[1] = target: T1, wild-type human Y1R (NPY1R-WT, hY1R) (Homo sapiens, UniProt P25929); test: GloSensor cAMP inhibition assay in HEK293 cells; format: cell-based; settings: wildtype Y1R, Figure 1B
T1 construct: Flag; expressed in transfected cells; host or cells: HEK293
T1 sequence (P25929 1-384): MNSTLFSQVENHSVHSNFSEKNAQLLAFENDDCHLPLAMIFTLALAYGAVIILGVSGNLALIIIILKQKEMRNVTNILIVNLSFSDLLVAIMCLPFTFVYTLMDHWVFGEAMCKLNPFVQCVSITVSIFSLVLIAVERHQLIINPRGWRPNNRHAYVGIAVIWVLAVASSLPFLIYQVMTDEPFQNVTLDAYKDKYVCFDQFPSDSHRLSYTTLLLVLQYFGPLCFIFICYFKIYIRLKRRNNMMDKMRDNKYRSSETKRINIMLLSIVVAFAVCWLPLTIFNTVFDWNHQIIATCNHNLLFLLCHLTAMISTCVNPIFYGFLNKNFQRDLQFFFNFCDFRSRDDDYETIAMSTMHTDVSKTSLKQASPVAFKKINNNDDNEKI
Experimental: Following a subsequent 1 -hour incubation, ligands, diluted in assay buffer with forskolin, were introduced to the cells. Subsequently, the cells wer e incubated for 30 minutes in a light-free environment at room temperature Fluorescence signals were measured using a Synergy H1 microplate reader (BioTek). GraphPad Prism 8 (GraphPad Software) was used to processing data using the nonlinear regression dos e-response function. Results were represented as the mean ± s.e.m. from three independent experiments . All experiments were repeated at least three times.

[2] = target: T2, wildtype Y2R (Homo sapiens, UniProt P49146); test: GloSensor cAMP inhibition assay in HEK293 cells; format: cell-based; settings: Figure 1C
T2 construct: Flag; expressed in transfected cells; host or cells: HEK293
T2 sequence (P49146 1-381): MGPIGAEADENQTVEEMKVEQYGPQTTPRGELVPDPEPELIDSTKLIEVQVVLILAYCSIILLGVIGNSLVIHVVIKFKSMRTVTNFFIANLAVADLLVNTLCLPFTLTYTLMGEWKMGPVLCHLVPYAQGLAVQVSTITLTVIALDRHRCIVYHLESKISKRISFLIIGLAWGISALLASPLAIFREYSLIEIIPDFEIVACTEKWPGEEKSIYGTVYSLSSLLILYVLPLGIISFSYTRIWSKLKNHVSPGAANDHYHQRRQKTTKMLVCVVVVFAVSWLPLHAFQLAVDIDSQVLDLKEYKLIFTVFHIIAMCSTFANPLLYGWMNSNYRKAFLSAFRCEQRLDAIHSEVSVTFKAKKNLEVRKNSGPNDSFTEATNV
Experimental: EM density map11, the coordinates were subsequently manual adjustment and rebuilding in COOT 12. Real space refinement was performed in Phenix program 13.
The model statistics were finally validated by using MolProbity 14 in Phenix. The refinement statistics are presented in supplemental information table S1. UCSF Chimera11, Chimera X 15 and PyMOL (https://pymol.org/2/) were used to generate the […]
Cyclic adenosine 3′,5′-monophosphate (cAMP) assay.
To measure the ligand-induced Gi signaling activation potency of wild -type NPYR or mutants, the GloSensor cAMP assay (Promega) was conducted following a previous study. Briefly, HEK293 cells were co -transfected with the GloSensor plasmid and various NPYR constructs or pcDNA3.1 (as a negative control) plasmids using Polyethylenimine Linear (PEI, YEASEN) in 6 -well plates. Following a 4-hour incubation period, the cells were transferred to fresh medium. After 24 hours, they were harvested and suspended in assay buffer ( HBSS with 10 mM HEPES, pH 7.4), supplemented with a 3% v/v dilution of D -Luciferin-Potassium Salt (YEASEN).
Following a subsequent 1 -hour incubation, ligands, diluted in assay buffer with forskolin, were introduced to the cells. Subsequently, the cells wer e incubated for 30 minutes in a light-free environment at room temperature […] signals were measured using a Synergy H1 microplate reader (BioTek). […]

Row | reduced Y1R activation compared to NPY [1] [folds] | Y2R activation compared with NPY (in words) [2] | Substance
1 | > 50 | slightly reduced Y2R activation | NPY^3−36: N-terminal truncated NPY variant, processed by dipeptidyl peptidase IV
2 | > 50 | – | NPY^13−36: N-terminally truncated NPY
